Measurements from the supplement of paper PMC10724198.
± gives the standard deviation of the averaged measurements.

System: Saccharomyces cerevisiae
Test: protein stability index of tFT-peptide fusion (C-terminal peptide) (PSI (0-1 scale)); higher = more stable (slower turnover)
Conditions: genetic background: wild type; temperature: 30 C
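Note: PSI is a weighted mean of sequencing reads over stability bins, variants kept only with over 10 reads, mCherry proximal and sfGFP distal, peptide attached via GGGS linker.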

Sequence | protein stability index
RGGWWGYRGGVP | 0.718 ± 0.057
RGIFLGVCALDY | 0.696 ± 0.0085
RGKGGKKRRKRD | 0.648 ± 0.07
RGKKKAKIYREH | 0.766 ± 0.13
RGLDNSGVVAGG | 0.715 ± 0.025
RGLGGWAECGRW | 0.76 ± 0.05
RGLGLVGLGGGG | 0.727 ± 0.012
RGLRIRFKKIDK | 0.704 ± 0.078
RGNSPPPSSPPL | 0.687 ± 0.038
RGPGRTPLGRQL | 0.68915 ± 0.00044
RGRRFMRGEVGG | 0.6528 ± 0.0055
RGRWGVYISSWV | 0.626 ± 0.048
RGSPCPQRAALH | 0.7 ± 0.035
RGSQRVVVSLGW | 0.726 ± 0.0073
RGVGFMGEGVTW | 0.656 ± 0.069
RGVGGAPVWPFV | 0.765 ± 0.0093
RGVLVTVNWVSG | 0.499 ± 0.038
RGVREVGSAELV | 0.731 ± 0.022
RGVVRYVNGSRG | 0.568 ± 0.083
RGYVSLSEGVAA | 0.676 ± 0.058
RHAMNPNTSRVL | 0.601 ± 0.042
RHGDRLEHPIPV | 0.611 ± 0.031
RHLESERAPLPG | 0.688 ± 0.018

Sequence | protein stability index
RHPEVGAATDGC | 0.708 ± 0.068
RHSAQRPRARHP | 0.79 ± 0.032
RICRWGSRAVVG | 0.685 ± 0.015
RIETHNQKSPGL | 0.737 ± 0.0023
RIGRHLATSRRV | 0.679 ± 0.0089
RIHQRTSLHKAH | 0.609 ± 0.13
RIKKKKNKARDI | 0.734 ± 0.035
RIKNMNNNEEKR | 0.714 ± 0.2
RIKTRDVSGNYC | 0.708 ± 0.026
RILFGALYSSCK | 0.6782 ± 0.0062
RILPPPPPPSSR | 0.754 ± 0.026
RIPHRTRLARPT | 0.6716 ± 0.0064
RIRPPPAPPPPP | 0.569 ± 0.019
RITKKRQQIKKR | 0.7482 ± 0.0028
RIVLGCSVVLRG | 0.615 ± 0.012
RIVLLICPYPVL | 0.554 ± 0.056
RIWEVQFRRLSE | 0.823 ± 0.074
RKEETINKESRR | 0.742 ± 0.032
RKEGRRGRRGAK | 0.691 ± 0.069
RKETQKIRKKRI | 0.679 ± 0.03
RKGEASRVRWSE | 0.668 ± 0.061
RKGRVLIMTYRK | 0.682 ± 0.051
RKGSVVILGLGL | 0.65248 ± 0.0003

Sequence | protein stability index
RKKFKKQKKKNI | 0.703 ± 0.073
RKKGGNSKKGKN | 0.774 ± 0.12
RKKHKYNKKNGQ | 0.666 ± 0.07
RKKREKKGRRGK | 0.668 ± 0.0068
RKKRNKDARQQN | 0.679 ± 0.057
RKLAEVNCTVKV | 0.664 ± 0.036
RKRASHALTPPC | 0.732 ± 0.024
RKRVKRTIYESK | 0.635 ± 0.1
RKSPRDTGLQRA | 0.706 ± 0.19
RKTPAITSNIQI | 0.722 ± 0.027
RKTPIKTKKSAR | 0.687 ± 0.09
RLEERTNIKKIK | 0.699 ± 0.045
RLELRVPPSFAH | 0.715 ± 0.0095
RLFSPLRPLSPP | 0.668 ± 0.032
RLFSSSCLPFPP | 0.781 ± 0.16
RLGAELGQLRCC | 0.66 ± 0.04
RLGGSLQRGKVV | 0.734 ± 0.088
RLGNVGVGVGVG | 0.616 ± 0.039
RLGRSEVREYAW | 0.716 ± 0.024
RLHPPRPLTPPL | 0.683 ± 0.0087
RLKFCLSICLAP | 0.7321 ± 0.003
RLKKKKKEIKRR | 0.721 ± 0.011
RLLHLMCFCSGP | 0.644 ± 0.031

Sequence | protein stability index
RLLPCATPHPDL | 0.647 ± 0.015
RLLPVTISSSLS | 0.702 ± 0.031
RLLYGIYDHGRQ | 0.731 ± 0.091
RLMKQKKMKRRK | 0.724 ± 0.025
RLPCPLRSRALS | 0.626 ± 0.03
RLPHPPARVFSI | 0.691 ± 0.011
RLPPLFPPPPPC | 0.709 ± 0.038
RLPPPPPPSPHL | 0.711 ± 0.054
RLPVRSGAMHGC | 0.665 ± 0.011
RLSGHLRLGRLG | 0.672 ± 0.086
RLSSCSAPFPLL | 0.7194 ± 0.0068
RLTDPHWALIQS | 0.839 ± 0.2
RLTKKKKEIKRR | 0.717 ± 0.014
RLTLTAKDNEGC | 0.733 ± 0.1
RLVDCDLTDKWH | 0.696 ± 0.018
RLVSIHDTRESL | 0.727 ± 0.012
RLVSPVLPLSRL | 0.728 ± 0.031
RLYPVPARPSPS | 0.629 ± 0.046
RMEPPLCIISPK | 0.6605 ± 0.0065
RNKKKKEKKKVE | 0.693 ± 0.038
RNLCHILRHERT | 0.708 ± 0.088
RNQTRKTTQKPR | 0.661 ± 0.01
RNRVVPITARLT | 0.545 ± 0.014

Sequence | protein stability index
RNTIKMKENKRI | 0.643 ± 0.042
RNTKGIIKKKKE | 0.702 ± 0.042
RNYEGTKIEEQE | 0.7219 ± 0.0047
RNYEKRSIIVCK | 0.497 ± 0.031
RNYIVLYYDEGD | 0.673 ± 0.074
RPAESPPAFYNR | 0.774 ± 0.062
RPAGGPSGGEGV | 0.689 ± 0.074
RPDTGPPRRNRE | 0.715 ± 0.031
RPFVSSAGSQFP | 0.808 ± 0.046
RPFYPLVRPRTR | 0.798 ± 0.2
RPGAFDNGLTLP | 0.682 ± 0.055
RPGGRLLVWVGG | 0.55 ± 0.038
RPGPGHYRSIIL | 0.669 ± 0.11
RPHPQRANAPGH | 0.69373 ± 9.2e-06
RPHTSPPPRHLY | 0.61 ± 0.016
RPPAPVFPNFPG | 0.708 ± 0.022
RPPAVVHLQPFY | 0.7016 ± 0.0064
RPPFPPLPLPPP | 0.674 ± 0.088
RPPGLIDSTIQP | 0.602 ± 0.034
RPPLLSPSPPPP | 0.649 ± 0.014
RPPLSSPPPPPP | 0.701 ± 0.017
RPPPLLPARLSL | 0.727 ± 0.028
RPPRPAATGVQH | 0.683 ± 0.018

Sequence | protein stability index
RPPSLCSYSICV | 0.585 ± 0.0092
RPRKPGLACKHL | 0.652 ± 0.034
RPSPPLLLPPAP | 0.71822 ± 0.00068
RPSTVPGHGSDT | 0.677 ± 0.011
RPSYRFFVRCSP | 0.762 ± 0.053
RPTSTHQPASPS | 0.684 ± 0.025
RPVVASRQASHS | 0.703 ± 0.021
RQEFSGAPPHLI | 0.697 ± 0.029
RQFRVVGCVCQP | 0.686 ± 0.037
RQHYFDVLGEMY | 0.7113 ± 0.0027
RQLLAVAELLTF | 0.677 ± 0.086
RQRLGLRIIIPS | 0.624 ± 0.017
RQRWLSELSKAL | 0.712 ± 0.083
RQSGSDFYGRSY | 0.663 ± 0.032
RQYARKKKKVRN | 0.683 ± 0.025
RRADGASLNNSV | 0.697 ± 0.028
RRAHATLPMNEF | 0.616 ± 0.015
RRAPTTATPARP | 0.826 ± 0.14
RRASTVRVPTCW | 0.701 ± 0.019
RRCDKTMSEGFF | 0.692 ± 0.078
RRCGTERVKARE | 0.766 ± 0.023
RRGYSNCMTLWI | 0.702 ± 0.049
RRHLSLCLLPSL | 0.685 ± 0.011

Sequence | protein stability index
RRKTKTYRSWME | 0.649 ± 0.035
RRLANMIFFLGG | 0.69 ± 0.042
RRLDGDLSPPIR | 0.664 ± 0.095
RRLGCDFDTYKK | 0.718 ± 0.043
RRLPPSRSAPFP | 0.698 ± 0.028
RRLQGKWIWQNH | 0.731 ± 0.055
RRMIKNVRRHKV | 0.661 ± 0.075
RRPPALDSLRHY | 0.661 ± 0.011
RRRENAKENEIK | 0.812 ± 0.13
RRRGEGRREKDR | 0.677 ± 0.12
RRRREKEKRSQE | 0.734 ± 0.14
RRRSAFRLIKEK | 0.677 ± 0.045
RRTEGKECEGEE | 0.707 ± 0.064
RRTRRATKAKKR | 0.682 ± 0.058
RRTTTDSPRADR | 0.708 ± 0.047
RRVMGRLKNQIK | 0.6672 ± 0.0065
RRWIFGEGMSTY | 0.723 ± 0.058
RRWWDHGCSGAG | 0.672 ± 0.061
RRYLREEDVQEK | 0.696 ± 0.049
RSAPPPPPLRLD | 0.789 ± 0.062
RSARGRRGWALG | 0.712 ± 0.022
RSCGCNGPGRSP | 0.749 ± 0.08
